Our source for the IC50 of inhibition of rFphB (100 nM), cleavage of the 4-MUB substrate (20 μM) values is paper PMC11581011.

This assay has as its target recombinantly expressed FphB protein (rFphB), wild type (Staphylococcus aureus) (UniProt Q2FV90).

In the case of FphB-OX-5 (peptide), the IC50 of inhibition of rFphB (100 nM), cleavage of the 4-MUB substrate (20 μM) is 1800 nM.
